These results are taken from paper PMC11183095, “PKM2 functions as a histidine kinase to phosphorylate PGAM1 and increase glycolysis shunts in cancer” (The EMBO Journal, 2024).

For this assay, the target named is T1, Recombinant GST-PKM2 (human, UniProt P14618 1-531).
T1 construct: pyruvate kinase M2 (PKM2), human cDNA in pGEX-6P-1; source: E. coli BL21 (DE3), purified (glutathione resin, dialysed in PBS)
The experiment in a line: pull-down; recombinant His-PGAM1 immobilised on Ni-beads, mixed with recombinant GST-PKM2 or GST-ENO1; eluate analysed by western blot. The settings on record: both partners purified. A general note: A western blot detects proteins with antibodies after separation by electrophoresis.

T1 sequence (P14618 whole entry): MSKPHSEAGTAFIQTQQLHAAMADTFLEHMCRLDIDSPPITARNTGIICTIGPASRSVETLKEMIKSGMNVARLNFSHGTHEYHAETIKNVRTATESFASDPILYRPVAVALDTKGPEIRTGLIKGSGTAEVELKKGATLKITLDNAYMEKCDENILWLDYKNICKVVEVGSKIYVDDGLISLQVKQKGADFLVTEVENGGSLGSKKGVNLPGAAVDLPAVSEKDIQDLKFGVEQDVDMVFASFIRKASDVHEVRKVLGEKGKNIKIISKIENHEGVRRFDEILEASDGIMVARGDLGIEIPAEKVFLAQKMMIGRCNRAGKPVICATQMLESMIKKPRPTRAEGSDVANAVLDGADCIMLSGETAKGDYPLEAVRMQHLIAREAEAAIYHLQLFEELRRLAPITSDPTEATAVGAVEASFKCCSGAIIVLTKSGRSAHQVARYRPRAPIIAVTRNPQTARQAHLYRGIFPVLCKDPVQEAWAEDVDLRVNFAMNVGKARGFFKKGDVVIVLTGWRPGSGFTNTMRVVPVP

B1: Recombinant His-PGAM1 (enzyme, human)
chain: MAAYKLVLIRHGESAWNLENRFSGWYDADLSPAGHEEAKRGGQALRDAGYEFDICFTSVQKRAIRTLWTVLDAIDQMWLPVVRTWRLNERHYGGLTGLNKAETAAKHGEAQVKIWRRSYDVPPPPMEPDHPFYSNISKDRRYADLTEDQLPSCESLKDTIARALPFWNEEIVPQIKEGKRVLIAAHGNSLRGIVKHLEGLSEEAIMELNLPTGIPIVYELDKNLKPIKPMQFLGDEETVRKAMEAVAAQGKAKK
notes: phosphoglycerate mutase 1 (PGAM1), human cDNA in pET-28a; also called His-tagged PGAM1; source: E. coli BL21 (DE3), purified (Ni resin, dialysed in PBS)
As for B1, the binding result is on record as “binds”.
